Holding throughout (assay): ELISA
(ELISA stands for enzyme-linked immunosorbent assay.)

For assay [1], the target named is T1, Mouse/Human chimeric Ang-2 with the human StuI-TfiI fragment (mouse/human chimera, UniProt O35608 19-496).
T1 construct: also called Stu-Tfil 310-400
T1 chain: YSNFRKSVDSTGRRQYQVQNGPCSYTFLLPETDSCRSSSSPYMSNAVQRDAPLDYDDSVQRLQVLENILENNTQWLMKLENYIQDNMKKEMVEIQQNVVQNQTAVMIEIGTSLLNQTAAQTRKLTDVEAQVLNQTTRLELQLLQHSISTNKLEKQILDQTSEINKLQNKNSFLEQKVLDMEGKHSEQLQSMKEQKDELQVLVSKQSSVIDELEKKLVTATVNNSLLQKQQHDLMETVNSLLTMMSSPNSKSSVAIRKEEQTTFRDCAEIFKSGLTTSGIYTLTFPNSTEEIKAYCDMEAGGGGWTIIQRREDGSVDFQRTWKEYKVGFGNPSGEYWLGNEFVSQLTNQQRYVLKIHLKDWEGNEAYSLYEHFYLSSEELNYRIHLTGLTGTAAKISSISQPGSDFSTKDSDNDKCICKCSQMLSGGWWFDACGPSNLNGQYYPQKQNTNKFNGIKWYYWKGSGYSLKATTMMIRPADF

The target in assay [2] is T2, Mouse/Human Ang-2 StuI chimeric molecule (mouse; human, UniProt O35608 19-496).
T2 construct: also called M/H Stul 310-496
T2 chain: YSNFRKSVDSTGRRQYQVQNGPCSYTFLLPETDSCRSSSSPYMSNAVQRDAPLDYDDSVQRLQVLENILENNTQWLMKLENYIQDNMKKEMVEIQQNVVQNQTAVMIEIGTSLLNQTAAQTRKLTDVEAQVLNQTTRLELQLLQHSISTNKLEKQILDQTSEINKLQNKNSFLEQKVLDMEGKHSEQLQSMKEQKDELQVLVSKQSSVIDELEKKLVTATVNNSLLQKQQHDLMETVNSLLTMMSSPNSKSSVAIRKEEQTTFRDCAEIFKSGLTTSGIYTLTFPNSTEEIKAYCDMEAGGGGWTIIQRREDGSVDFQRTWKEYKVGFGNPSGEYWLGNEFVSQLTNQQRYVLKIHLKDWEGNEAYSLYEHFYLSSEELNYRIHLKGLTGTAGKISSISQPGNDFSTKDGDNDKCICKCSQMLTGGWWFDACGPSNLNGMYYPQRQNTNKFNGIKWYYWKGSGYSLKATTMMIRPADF

Assay [3] addresses T3, human Ang-2 V345M (human, UniProt O15123 19-496).
T3 sequence: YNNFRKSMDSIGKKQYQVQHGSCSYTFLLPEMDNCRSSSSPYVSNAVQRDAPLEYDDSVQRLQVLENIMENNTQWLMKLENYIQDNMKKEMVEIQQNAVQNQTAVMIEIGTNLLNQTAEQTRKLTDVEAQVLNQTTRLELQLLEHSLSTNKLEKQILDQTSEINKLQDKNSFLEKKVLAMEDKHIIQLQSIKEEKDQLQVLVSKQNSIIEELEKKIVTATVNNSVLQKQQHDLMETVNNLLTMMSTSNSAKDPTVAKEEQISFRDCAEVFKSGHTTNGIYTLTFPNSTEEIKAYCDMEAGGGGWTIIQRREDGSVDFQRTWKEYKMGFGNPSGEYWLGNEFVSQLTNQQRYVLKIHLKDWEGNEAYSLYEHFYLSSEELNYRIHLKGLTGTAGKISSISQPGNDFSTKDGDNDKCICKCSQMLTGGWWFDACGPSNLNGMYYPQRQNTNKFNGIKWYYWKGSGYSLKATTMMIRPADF

Assay [4] addresses T4, human Ang-2443 (human, UniProt O15123 19-496).
T4 construct: Splice variant missing amino acids 96-148; supernatant of transfected 293F cells
T4 sequence: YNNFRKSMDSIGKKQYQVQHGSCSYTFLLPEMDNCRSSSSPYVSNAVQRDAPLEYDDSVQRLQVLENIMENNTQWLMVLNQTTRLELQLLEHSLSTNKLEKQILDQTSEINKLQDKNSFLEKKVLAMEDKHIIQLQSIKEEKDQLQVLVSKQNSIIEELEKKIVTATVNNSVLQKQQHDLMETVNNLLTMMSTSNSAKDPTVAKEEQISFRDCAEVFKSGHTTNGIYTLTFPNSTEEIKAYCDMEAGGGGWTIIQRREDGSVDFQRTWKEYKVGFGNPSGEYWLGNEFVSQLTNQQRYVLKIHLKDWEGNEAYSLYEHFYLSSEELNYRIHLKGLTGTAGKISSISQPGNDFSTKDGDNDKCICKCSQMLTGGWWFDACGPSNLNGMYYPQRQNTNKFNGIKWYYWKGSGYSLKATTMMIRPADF

Assay [5] addresses T5, Human Ang-1/2 BsmI chimeric molecule (human).
T5 chain: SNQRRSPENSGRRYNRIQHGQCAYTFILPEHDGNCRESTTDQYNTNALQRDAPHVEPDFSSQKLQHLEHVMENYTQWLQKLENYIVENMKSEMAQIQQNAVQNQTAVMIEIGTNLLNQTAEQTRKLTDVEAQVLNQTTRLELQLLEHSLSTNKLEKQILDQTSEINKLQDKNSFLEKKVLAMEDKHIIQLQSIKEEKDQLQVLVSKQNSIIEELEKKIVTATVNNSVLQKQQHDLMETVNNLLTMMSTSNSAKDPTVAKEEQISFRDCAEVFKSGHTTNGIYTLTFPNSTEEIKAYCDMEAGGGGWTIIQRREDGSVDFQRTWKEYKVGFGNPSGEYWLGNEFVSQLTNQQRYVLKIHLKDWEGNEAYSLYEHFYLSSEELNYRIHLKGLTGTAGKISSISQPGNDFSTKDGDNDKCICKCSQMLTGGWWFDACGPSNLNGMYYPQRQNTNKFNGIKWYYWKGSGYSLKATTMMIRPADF

B1: mAb 3.19.3 (antibody, V domains shown)
VH: QVQLVESGGGVVQPGRSLRLSCAASGFTFTNYGMHWGRQAPGKGLEWVAVISHDGNNKYYVDSVKGRFTISRDNSKNTLYLQMNSLRAEDTAVYYCAREGIDFWSGLNWFDPWGQGTLVTVSS
VL: EIVLTQSPGTLSLSPGERATLSCRASQSITGSYLAWYQQKPGQAPRLLICGASSWATGIPDRFSGSGSGTDFTLTISRLEPEDFAVYYCQQYSSSPITFGQGTRLEIKR
notes: Human hybridoma IgG (XenoMouse); also called x3.19
Turning to B1, the “% of binding to human Ang-2” value in assay [1], in assay [2], in assay [3], in assay [4] and in assay [5] was 100% each time.

B2: mAb 5.86.1 (antibody, V domains shown)
VH: QVQLVQSGAEVKKPGASVKVSCKASGYTFTGYHMYWVRQAPGQGLEWLGWINPNSGGTNYAQKFQGRVTMTRDTSISTAYMELSRLRSDDTAVYYCVRDQGIAAAGPFDYWCQGTLVTVSS
VL: DIRMTQSPSSLSASVGDRVTITCRASQRISTYLNWYQQKPGKAPKFLIYAASSLQSGVPSRFSGSGSGTDFTLTISSLQPEDFATYYCQQSYTTPFTFGPGTKVDIKR
notes: Human hybridoma IgG (XenoMouse); also called x5.86
For the molecule B2, the “% of binding to human Ang-2” value in assay [1] stood at 23%; in assay [2] it was 100%; in assay [3], 100%; in assay [4], 100%; in assay [5] it was 100%.

B3: mAb 5.103.1 (antibody, V domains shown)
VH: QVQLVQSGAEVKKPGASVKVSCKASGYTFTGYYLYWVPQAPGQGLEWMGWISPNSGGTNYAQKFQGRVTMTRDTSISTAYMELSRLRSDDTAVYYCARDQVIAVAGPFDYWAQGTLVTVSS
VL: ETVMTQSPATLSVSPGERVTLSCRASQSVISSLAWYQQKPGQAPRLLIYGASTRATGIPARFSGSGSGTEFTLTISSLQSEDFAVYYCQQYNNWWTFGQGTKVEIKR
notes: Human hybridoma IgG (XenoMouse); also called 5.103.3; x5.103
For B3, the “% of binding to human Ang-2” value in assay [2], in assay [3], in assay [4] and in assay [5] was 100% each time.

B4: mAb 5.83.1 (antibody, V domains shown)
VH: not shown
VL: EIVMTQSPATLSVSPGERATLSCRASQSLISNLAWYQQKPGQAPRLLIFGASTRATGIPARFSGSGSGTEFTLTISSLQSEDFAVYYCHQYNNWWTFGQGTKVEIKR
notes: Human hybridoma IgG (XenoMouse); also called x5.83
Take B4: the “% of binding to human Ang-2” value amounted to 86% in assay [1]; 100% in assay [2]; 100% in assay [3]; 100% in assay [4]; 100% in assay [5].

B5: mAb 5.88.3 (antibody, V domains shown)
VH: EVQMVESGGGLVQPGGSLRLSCAASGFTLRSYWMSWVRQAPGKGLEWVANIKEDGSEKYHVDSVKGRFTISRDNAENSLFLQMSSLRAEDTAVYYCARDMEASAGLFDYWGQGTLVTVSS
VL: EIVMTQSPATLSVSPGERAILSCRASQSISSNLAWYQQKPGQAPRLLIYGASTRATGIPARFSGSGSGTEFTLTISSLQSEDFAVYYCQQYNYWWTFGQGTKVEIKR
notes: Human hybridoma IgG (XenoMouse); also called x5.88
Take B5: the “% of binding to human Ang-2” value in assay [1] is 20%; in assay [2], 100%; in assay [3] it was 100%; in assay [4], 100%; in assay [5], 100%.

B6: mAb 5.13.1 (antibody, V domains shown)
VH: EVQLVESGGGLVQPGGSLRLSCAASGFTFSSYWMSWVRQAPGKGLEWVANIKQDGSEKYYVDSVKGRFTISRDNAKNSLYLQMNSLRAEDTAVYYCARDPGIAVAGPFDYWGQGTLVTVSS
VL: EIVMTQSPATLSVSPGERATLSCRASQSVSSNLAWYQQKPGQAPRLLIYGASTRATGIPARFSGSGSGTEFTLTISSLQSEDFAVYYCQQYNHWWTFGQGTKVEIKR
notes: Human hybridoma IgG (XenoMouse); also called x5.13
Take B6: the “% of binding to human Ang-2” value in assay [1] was 27%; in assay [2], 100%; in assay [3], 100%; in assay [4], 100%; in assay [5], 100%.

B7: mAb 3.31.2 (antibody, V domains shown)
VH: EVQLVESGGGLVQPGGSLRLSCAASGFTFSSYWMSWVRQAPGKGLEWVANIKQDGSDKYYVDSVKGRFTISRDNAKNSLYLRMNSLRAEDTAVFYCARDMGSGWFDYWGQGTLVTVSS
VL: EVVMTQSPATLSVSPGERATLSCRASQSVGSNLAWYQQKPGQAPRLLIYGASTRATGIPARFSGSGSGTEFTLTISSLQSEDFAVYCCQQYNHWWTFGQGTKVEIKR
notes: Human hybridoma IgG (XenoMouse); also called x3.31
As for B7, the “% of binding to human Ang-2” value in assay [3], in assay [4] and in assay [5] was 100% in each case.

B8: mAb 5.54.1 (antibody, V domains shown)
VH: not shown
VL: EIVMTQSPATLSVSPGERATLSCRASQSLISNLAWYQQKPGQAPRLLIFGASTRATGIPARFSGSGSGTEFTLTISSLQSEDFAIYYCHQYNNWWTFGQGTKVEIKR
notes: Human hybridoma IgG (XenoMouse); also called x5.54
B8: the “% of binding to human Ang-2” value was determined as 77% in assay [1]; 100% in assay [2]; 100% in assay [3]; 100% in assay [4]; 100% in assay [5].

B9: mAb 5.101.1 (antibody, V domains shown)
VH: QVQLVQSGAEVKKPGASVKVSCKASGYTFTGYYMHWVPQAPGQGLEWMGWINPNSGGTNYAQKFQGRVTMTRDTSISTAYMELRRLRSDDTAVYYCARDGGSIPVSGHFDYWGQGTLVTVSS
VL: EIVMTQSPATLSVSPGERATLSCRASQSLISNLAWYQQKPGQAPRLLIFGASTRATGIPARFSGSGSGTEFTLTISSLQSEDFAVYYCHQYNNWWTFGQGTKVEIKR
notes: Human hybridoma IgG (XenoMouse); also called x5.101
Turning to B9, the “% of binding to human Ang-2” value stood at 28% in assay [1]; 100% in assay [2]; 100% in assay [3]; 100% in assay [4]; 100% in assay [5].

B10: mAb 3.3.2 (antibody, V domains shown)
VH: EVQLVESGGGLVQPGGSLRLSCAVSGFTFSSYWMSWVRQAPGKGLEWVANIKQDGSEKYYVDSVKGRFTISRDNAKNSLYLQMNSLRAEDTAVYYCARDQGIAVAGPFDYWGQGTLVTVSS
VL: EIVMTQSPATLSVSPGERATLSCRASQTVSSDLAWYQQKPGQAPRLLIYGASIRATGIPARFSGSGSGTEFTLTISSLQSEDFAVYSCQQYYNWWTFGQGTKVEIKR
notes: Human hybridoma IgG (XenoMouse); also called 3.3.1; x3.3
With B10, the “% of binding to human Ang-2” value in assay [1] amounted to 15%; in assay [2] it was 100%; in assay [3], 100%; in assay [4], 100%; in assay [5], 100%.

Source of the values: US20080267971A1 (published 2008).
